Molecular target: the molecule itself
Assay: single-molecule brightness analysis (TOCCSL); live CHO cells stably expressing mGFP–hDAT, TIRF microscopy of the plasma membrane, room temperature; mobile fraction only; also at low (~5/μm^2) and high (~40/μm^2) surface density and after cholesterol oxidase (2 units/ml, 30 min), MβCD (5 mM, 1 h) or m-3M3FBS (25 μM, 20 min): distribution unchanged

B1: human dopamine transporter fused to monomeric GFP (mGFP–hDAT) (natural protein, UniProt Q01959 1-620, looked up)
chain: MSKSKCSVGLMSSVVAPAKEPNAVGPKEVELILVKEQNGVQLTSSTLTNPRQSPVEAQDRETWGKKIDFLLSVIGFAVDLANVWRFPYLCYKNGGGAFLVPYLLFMVIAGMPLFYMELALGQFNREGAAGVWKICPILKGVGFTVILISLYVGFFYNVIIAWALHYLFSSFTTELPWIHCNNSWNSPNCSDAHPGDSSGDSSGLNDTFGTTPAAEYFERGVLHLHQSHGIDDLGPPRWQLTACLVLVIVLLYFSLWKGVKTSGKVVWITATMPYVVLTALLLRGVTLPGAIDGIRAYLSVDFYRLCEASVWIDAATQVCFSLGVGFGVLIAFSSYNKFTNNCYRDAIVTTSINSLTSFSSGFVVFSFLGYMAQKHSVPIGDVAKDGPGLIFIIYPEAIATLPLSSAWAVVFFIMLLTLGIDSAMGGMESVITGLIDEFQLLHRHRELFTLFIVLATFLLSLFCVTNGGIYVFTLLDHFAAGTSILFGVLIEAIGVAWFYGVGQFSDDIQQMTGQRPSLYWRLCWKLVSPCFLLFVVVVSIVTFRPPHYGAYIFPDWANALGWVIATSSMAMVPIYAAYKFCSLPGSFREKLAYAIAPEKDRELVDRGEVRQFTLRHWLKV
notes: human dopamine transporter (hDAT); XhoI/HindIII fragment of hDAT cDNA ligated into mGFP-C1, then cloned into pIB2; mGFP is fused to the cytosolic N terminus of hDAT; also called mEGFP–hDAT; mGFP–DAT; source: CHO cells stably expressing mGFP–hDAT (viral transduction, blasticidine selection), in the live cell plasma membrane; not shown: mGFP (eGFP with A206K), N-terminal, kept
stoichiometry N: 2

Source: PMC6462504, “Dopamine transporter forms stable dimers in the live cell plasma membrane in a phosphatidylinositol 4,5-bisphosphate–independent manner” (The Journal of Biological Chemistry, 2019)
